2 molecules from patent publication US20200190592A1, “PME-1 AS A BIOMARKER TO PREDICT AND DIAGNOSE AN INCREASED RISK OF ENDOMETRIAL CANCER AND GENE SILENCING OF PME-1 TO INHIBIT EPITHELIAL TO MESENCHYMAL TRANSITION” (Medical Diagnostic Laboratories, L.L.C., priority 2018, published 2020) can be followed below.

One data set has as its system RL95-2 cells. The data set is described as follows: TUNEL assay. To be noted: 100 nM siRNA, vs control siRNA; DNase positive control. It is filed as cell-based, human. An excerpt:
To test for the involvement of apoptosis, we used siRNA against PME-1 or control siRNA and conducted an immunofluorescence assay called a TUNEL assay. In this assay, all cells were stained blue with the nuclear stain, DAPI, and cells that were undergoing apoptosis would stain green with the addition of fluorescein, which bound to fragmented DNA. Fragmented DNA is a hallmark of apoptotic cells. […] A positive control was included in the assay to determine that the assay conditions were optimal. In the positive control, RL95-2 cells were treated with DNase.
RL95-2 cells were plated in a chamber-slide and allowed to grow over night at 37° C. Cells were transfected the next day with 100 nM of siRNA (Thermo Scientific) using Dharmafect 1 transfection reagent (siRNA sequences are summarized in Table S2). Transfections were repeated on day four and the cultures were terminated the day after. The assay was performed according to the manufacturer's instructions (Roche Applied Science, counterstained with DAPI and photographed using Leica DM16000 B microscope. Cells incubated with 1U/μl of DNase I (Life Technologies) served as a positive control. The experiment was repeated three times.

The target in data set [1] is T1, FLAG-tagged PME-1 (over-expression of wild-type PME-1) (human, UniProt Q9Y570 1-386).
T1 construct: Expressed in ECC-1 cells and pulled down from lysate with FLAG resin; also called FLAG-PME-1; protein methylesterase 1; not shown: FLAG tag; an N-terminal FLAG vector p3XFLAG-CMV-10 is named in the methods for RL95-2 cells
T1 sequence (looked up): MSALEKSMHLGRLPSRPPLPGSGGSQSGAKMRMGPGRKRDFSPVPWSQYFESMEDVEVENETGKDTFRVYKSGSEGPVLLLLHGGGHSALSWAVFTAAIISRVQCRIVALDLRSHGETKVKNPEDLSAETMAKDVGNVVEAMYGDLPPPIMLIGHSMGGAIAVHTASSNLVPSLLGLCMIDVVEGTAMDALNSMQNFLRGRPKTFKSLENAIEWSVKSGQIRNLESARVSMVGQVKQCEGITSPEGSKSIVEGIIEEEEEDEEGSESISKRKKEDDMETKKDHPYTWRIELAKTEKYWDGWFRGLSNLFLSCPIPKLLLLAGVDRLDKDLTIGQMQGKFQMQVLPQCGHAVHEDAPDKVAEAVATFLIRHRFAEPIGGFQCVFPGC
Put plainly: FLAG co-immunoprecipitation from ECC-1 lysate, western blot with anti-Ppp6c.

The target in data set [2] is T2, FLAG-tagged PME-1 S156A (catalytically inactive mutant) (human, UniProt Q9Y570 1-386).
T2 construct: Expressed in ECC-1 cells and pulled down from lysate with FLAG resin; also called FLAG-PME-1 S156A; FLAG PME-1 S156A; not shown: FLAG tag; an N-terminal FLAG vector p3XFLAG-CMV-10 is named in the methods for RL95-2 cells
T2 sequence (looked up): T1 sequence (looked up) with S156A
The description is as above.

Residue numbers refer to the chain shown, from its start.

Turning to “PPME1 siRNA no. 1: siRNA, SEQ ID NO: 4: TGG CTG GTG TTG ATA GAT T, bp 959-977 (guide TGGCTGGTGTTGATAGATT; listed as DNA, chemistry not given here; listed as Homo sapiens)”, the “detection of apoptotic cells” value in the data set with RL95-2 cells is “did not lead to detection of apoptotic cells”.

B1: Endogenous Ppp6c, the catalytic subunit of PP6 (enzyme, human, UniProt O00743 1-305, looked up)
chain: MAPLDLDKYVEIARLCKYLPENDLKRLCDYVCDLLLEESNVQPVSTPVTVCGDIHGQFYDLCELFRTGGQVPDTNYIFMGDFVDRGYYSLETFTYLLALKAKWPDRITLLRGNHESRQITQVYGFYDECQTKYGNANAWRYCTKVFDMLTVAALIDEQILCVHGGLSPDIKTLDQIRTIERNQEIPHKGAFCDLVWSDPEDVDTWAISPRGAGWLFGAKVTNEFVHINNLKLICRAHQLVHEGYKFMFDEKLVTVWSAPNYCYRCGNIASIMVFKDVNTREPKLFRAVPDSERVIPPRTTTPYFL
notes: Endogenous protein of ECC-1 cell lysate, probed by western blot with anti-Ppp6c; also called protein phosphatase 6 catalytic subunit
As for B1, the binding result in data set [1] and in data set [2] was “no binding” in each case.
